From the DeepSol protein solubility set come the findings set out here.

The nature of this data set: soluble on expression in E. coli; label from the status in PepcDB or PDB records.
On to “MAHHHHHHMFHGMNKTNTWAVILSSSRYFFNLRHTTNALAMYHLCRKHGMDDDHILVFLSDSYACDPRKPNPATIYGAPAQAEQPNLYGCNIRVDYASYDVGVRRFLGVLQGRYDENTPPSRRLDTDENSNIIIYAAGHSAEKFFKFQDSEFMSSTDIADTLMMMWEQRRYRKLVFLVDTCRALSLCLEIKAPNVVCLASSEAHLDSYSHHLDPPSGFTVITRWTFEFLEVLKDSKCRPENGEVTLLQKSFYDFNYGPERLSLPQPLSEPAHFDAVNRPNAVREWKMDEFFCEQDRDKIPVELRYDLF”, for which the “soluble on expression in E. coli” value is “not soluble”.

Consider “MINSPRVCIQVQSVYIEAQSSPDNERYVFAYTVTIRNLGRAPVQLLGRYWLITNGNGRETEVQGEGVVGVQPLIAPGEEYQYTSGAIIETPLGTMQGHYEMIDENGVPFSIDIPVFRLAVPTLIH”, for which the “soluble on expression in E. coli” value is reported as “soluble”.

Regarding “MGSDKIHHHHHHMKRFNIIITLSATLGLFSCELDKMPMDQVSDAVFWQKPADFELAANDFYFGLQEVSQYIDMNSDIAFGSGTNDVSDGSYLAPVNSDDWDNPWKFVQSTSYLLKKAEESGLSDEEIGRWKAEAHFFRAYNYWKLVKTYGGVPKIDIPLNTSSEELYTPRSSQQEIIDFIIEDLDKAIPLLPKQSGLTAEELGRTTQGAALALKARAALFEGTWQKYHGMADAGKYLDLAIQAAQAIVDSKEYELYREKGELSYKYLHILEGDDSKEVLLARRYYKLRATHNWTRELLLGAMVPTKNLADVYLCTDGLPIDKSKLFKGFQTQTSEFENRDSRMAQTFVVPGSEIFSEGGGWATVEPGFIGNNSTRTGYMIRKFMDETLDAVQFIGEYDFKEFRYGEVLLILAEALYEKNGQITDEQLDLTINDLRNRANMPRLTNAFVATNGLNMQEEIRRERTVELAFEGYRRDDLRRWGTAETVLPLAIRGVKFVGTEYQQKFPELVIGQDIQVDSEGFIIAQPASARKFQTPKHWLSPIPLQQVQLSKGTLEQNPGW”, the “soluble on expression in E. coli” value was “not soluble”.

For the sequence “MGSDKIHHHHHHMNKVTINPQIQLTYQIEGKGDPIILLHGLDGNLAGFEDLQHQLASSYKVLTYDLRGHGKSSKSESYDLNDHVEDLKILMEKLNIHEAHILGHDLGGVVAKLFTDKYAYRVKSLTTIASKKDDLIHSFTQLLIQYQDDIAGFNKSEAYILLFSKLFRNQEKTMKWYQKQRIYSIKSEDDSAVAIRSLILHKDEPMYLKKRTCVPTLLINGEHDPLIKDKNHFKLEAHFLNVTKKIFEHSGHAPHIEEPEAFMNYYLNFLKSVS”, the “soluble on expression in E. coli” value is listed as “not soluble”.

Turning to “MTTSAMTAPDTRRQLQHVETLRRFLRGDSCFVHDLRGMMDYHDGLSRRQQRAFCRASRVLTDPEPIQSEAEGENKQFTEHTHKVVSFFIKSVFVFPYLVLPNCCQVSVDRSRVPETGGRWLLEHHHHHH”, the “soluble on expression in E. coli” value is on record as “not soluble”.

Turning to “MRLDYALFSQHLVNSREKAKALVLKNQVLVNKMVVSKPSFIVKENDKIELIAEKLFVSRAGEKLGAFLETHFVDFKGKVVLDVGASKGGFSQVALLKGAKRVLCVDVGKMQLDESLKQDKRIECYEECDIRGFKTPETIDLALCDVSFISLYYILEAILPLSDEFLTLFKPQFEVGRGIKRNKKGVVVDKEAILNALENFKNHLKTKDFQILKIQESLVKGKNGNVEFFIHFKRA”, the “soluble on expression in E. coli” value is listed as “not soluble”.

Take “GMHSALQLRSRIKSSGELELSLDSIDTPHPGPDEVLIRIEASPLNPSDLGLLFGAADMSTAKASGTAERPIVTARVPEGAMRSMAGRLDASMPVGNEGAGVVVEAGSSPAAQALMGKTVAAIGGAMYSQYRCIPADQCLVLPEGATPADGASSFVNPLTALGMVETMRLEGHSALVHTAAASNLGQMLNQICLKDGIKLVNIVRKQEQADLLKAQGAVHVCNAASPTFMQDLTEALVSTGATIAFDATGGGKLGGQILTCMEAALNKSAREYSRYGSTTHKQVYLYGGLDTSPTEFNRNFGMAWGMGGWLLFPFLQKIGRERANALKQRVVAELKTTFASHYSKEISLAEVLDLDMIAVYNKRATGEKYLINPNKGLAG”: the “soluble on expression in E. coli” value is “soluble”.

On to “MQPPPRKVKPAQEVKLRFLEQLSILQTWQQREADLLEDIRSYSKQRAAIEREYGQALQKLAGPFLKREGHRSGEMDSRGRTVFGAWRCLLDATVAGGQTRLQASDRYRDLAGGTGRSAKEQVLRKGTENLQRAQAEVLQSVRELSRSRKLYGQRERVWALAQEKAADVQARLNRSDHGIFHSRTSLQKLSTKLSAQSAQYSQQLQAARNEYLLNLVATNAHLDHYYQEELPALLKALVSELSEHLRDPLTSLSHTELEAAEVILEHAHRGEQTTSQVSWEQDLKLFLQEPGVFSPTPPQQFQPAGTDQVCVLEWGAEGVAGKSGLEKEVQRLTSRAARDYKIQNHGHRVLQRLEQRRQQASEREAPSIEQRLQEVRESIRRAQVSQVKGAARLALLQGAGLDVERWLKPAMTQAQDEVEQERRLSEARLSQRDLSPTAEDAELSDFEECEETGELFEEPAPQALATRALPCPAHVVFRYQAGREDELTITEGEWLEVIEEGDADEWVKARNQHGEVGFVPERYLNFPDLSLPESSQDSDNPCGAEPTAFLAQALYSYTGQSAEELSFPEGALIRLLPRAQDGVDDGFWRGEFGGRVGVFPSLLVEELLGPPGPPELSDPEQMLPSPSPPSFSPPAPTSVLDGPPAPVLPGDKALDFPGFLDMMAPRLRPMRPPPPPPAKAPDPGHPDPLT”, for which the “soluble on expression in E. coli” value is given as “soluble”.

Take “MKRQRVVVKIGSSSLTDPKGGLCHDKLFDHVEAIAYLKQLGHDVILITSGAVAAGFGPLGYPARPTTIAGKQAAAAVGQSLLMQAYSSAFAQFGFTAAQLLLTRSDFYSRERFRNLFATITTLLENGAVPIINENDSVSIEELTFGDNDMLSALVAGFLHADALILLTDINGLYDANPKTNPQAKKYAFLPEITDEMIEAAGGIGSAVGTGGMRSKLLAARKALSFGVSVFIGAGSGKEKLADILAGKGDGTYIGAPFPKQMQMRKQWIAYHAPVAGTVTVDSGAEEALLMRGKSLLPAGVTAVSGDFHAMDVVDVVNEKGITIGRGQVYYAAADLEKVKGLPSEEARQYSYLHRPEVIHRDNWVTLRKESVSK”: the “soluble on expression in E. coli” value is reported as “not soluble”.

In the case of “MSLEPATAPRPDMAPELTPEEEQATKQFLEEINKWTVQYNVSPLSWNVAVKFLMARKFDVLRAVELFHCYRETRRKEGIVKLKPHEEPLRSEILSGKFTILNVRDPTGASIALFTARLHHPHKSAQHVVLQALFYLLDRAVDSFETQRNGLVFIYDMCGSNYANFELDLGKKVLNLLKGAFPARLKKVLIVGAPIWFRVPYSIISLLLKDKVRERIQILKTSEVTQHLPRECLPENLGGYVKIDLATWNFQFLPQVNGHPDPFDEIILSSLPPAEGHHHHHH”, the “soluble on expression in E. coli” value is “soluble”.

With “MSPRRSAAEAQATRGRILGRAAEIASEEGLDGITIGRLAEELEMSKSGVHKHFGTKETLQISTLDKAFVDFWHRVVEPALAEPPGLRRLRAVCANSVGYLEEPLLPGGCLLTAALSEYDGRPGRVRDAVAEVWSRWREQLRADLTAAVDKGELPAGFDVEQALFEIVAAGLALNAAMQLQHDRTAADRARRAIERALAQS”, the “soluble on expression in E. coli” value is “soluble”.

With “MIKLAPAALKADLQVRQERVRIAMEEEGYDALLVTSNVNLLYLFGSIYGGAAYLPAEGEPIFFVRRPQVIEEGNVCPIRKLEDIPALIQSRGGVLPRRIMLENDESSYSDIKRQHSIFPNAEYGNATALLRRLRMIKTPGEIELFRRTAAIHGEVYACIPSVFRPGMTDREFQVEIEHLMRNYGSEGIFRTFGSAMEIHMGNVIVGDNAESPSPYDFAMGGGGTDALPLGADGSPMKEGMCVMVDMAGNYSAYISDMTRSYAIGKVPDEARRLHDLSREIQAKVMETAEPGMSCADLYKRSVEMAEEAGAADKFMGTKQQAKFVGHGIGLQINEMPVLMARSKEILTPGMVIAFEPKFVLPGIGAVGNENSFLVTESGVEKLTVCSEELIDLLAVAKQ”, the “soluble on expression in E. coli” value was “not soluble”.

In the case of “SRQHTSISDYDVMILDLTDVPMLDVTVGLALENAIKDALDARCEVYLLCPNQRTREQLEKFHVIDLVPDNNMYQFRYEALNAAVAHVESDQYQRMTA”, the “soluble on expression in E. coli” value is listed as “not soluble”.

Consider “SNPSSSGGTTKRFRTKFTAEQKEKMLAFAERLGWRIQKHDDVAVEQFCAETGVRRQVLKIWMHNNKN”, for which the “soluble on expression in E. coli” value is “soluble”.

On to “MIQERKNLVTFGDQLVEAGRRLGRLCVGIDPHPSLLKQWGCDDGIAGLQRFTEICVEAFSGNVALVKPQVAFYEAWGAAGYQILESAISELRQAGTLVLSDAKRGDIGSTMAGYAQAWLAEESSLSSDAVTVSPFLGYGSLSPVLEVAASTNKGVFVLAATSNPEARSLQDRIGEDGLSISQLMVDSVALSNREHKENNHYGNVGVVIGATLAHPPQLERLNGPILLPGVGAQGATPADVARLTQGVQELAFANVSRGILKAGPSASALSTAISKFVEEFTN”, for which the “soluble on expression in E. coli” value was “not soluble”.

For “MGSDKIHHHHHHMIFQLKGKFQHYPWGGRYFIPHFLKLTEVVDQPYAEYWLGAHPAASATIKFGEQWLPLADVIKQAPELLGERSRQQFGDNLPYLLKILDIKQPLSIQLHPNKAQAEYGFNQENRQGIPLEDVRRIYKDRNHKPEMMIALSDFWLLHGFKSITAIQACLAKYPSTSALAKSLVEKSLAVVYAEIMHADQTQLASWLRPIIEQRRADYLADKLKLSDPDYWLLYMTDDLAADAPLDAGLMCFYLFNIVHLKKGEGIYQAANLPHAYLRGQSIELMANSDNVIRGGLTTKWVDIPALLQAVDYRPVRPQIIAAYRDDKTVDQNFYLYPTPQAKDFALQRLTIRQLVENRFVTDSASMLLVMKGSLYIDLGNTSFHLNQGDAVFISADSHVELIGENDGYAIIASLP”, the “soluble on expression in E. coli” value was “not soluble”.

With “MGSDKIHHHHHHMSALLEVKGLNVSFRQDGRISQAVRGVSFTVNRGETVALVGESGSGKSVSALSTVSLLGDSAIVEGSVTYDGQEMIGASEQRLMDVRGNDISFIFQEPMTSLNPLHTIRKQMAESLALHQGLVGAAALERILELLVKVGIRDPETRLDAYPHQLSGGQRQRVMIAMALANKPDILIADEPTTALDVTIQAQILELLADLQREENMGMLFITHDLGIVRRIADRVCVMKAGEIVESGSTEEIFANPRHPYTRKLLAAEPKGRPDPVPAGAEEVARTDHLRVWFPIQRGFLRRTVGHVKAVNDASISVRAGETLGIVGESGSGKTTLALAIMRLIGSEGGITFRGEDVRSWSTRELRRLRKDMQIVFQDPFGSLSPRMTCAQIISEGLAIHKVDPHRAPRELVAEVMQEVGLDPATMDRYPHEFSGGQRQRIAIARAMVLRPRLLVLDEPTSALDMTVQVQIVALLRDLQRKYGLAYLFISHDLKVVRAMSHKVIVMRQGDVIEMGETEALFTNAQTDYTRSLIAAAG”, the “soluble on expression in E. coli” value is reported as “not soluble”.

Regarding “MFKPELLSPAGTLKNMRYAFAYGADAVYAGQPRYSLRVRNNDFKMENLATGIEEAHALGKKLYVVSNIAPHNAKLKTYIKDMEPVVAMKPDALIMSDPGLIMMVREAFPEQVVHLSVQANAINWASVKFWQTQGIKRVILSRELSLDEIEEIRQRCPDIELEVFVHGALCMAYSGRCLLSGYINKRDPNQGTCTNACRWKYDVHEAQQTDSGDIIATPNAVQIETPTTLGAGAPTEQIFLLQEANRPGEYMPAFEDEHGTYIMNSKDLRAIQHVERLAKMGIDSLKIEGRTKSFYYVARTAQLYRQAIDDAASGKSFDRSLMNQLEGLAHRGYTEGFLRRHVHDEYQNYDYGYSVSDTQQFVGELTGKRNLAGLAEIEVKNKFSVGDSVELMTPQGNISLTIEQLENRKAEAVEAGLGSGHSVYLPVPKEVDLNHGILLRNLPQGQDTRNPHEAG”, the “soluble on expression in E. coli” value was “not soluble”.

As for “MKTTDLFSTLENNILRNSLDSTTKDKLLSNLSLLRKASLNILITGSTGSGKSSTINALFDMTVAQVGIDSDPHTESVQCYHLNNLVLWDTPGLGDGIDEDKKHVQAIKQLLNKRDDHGQLAIDLVLVILDGGSRDLGTPLRLINDIVIPQLGDDAEKRLIVAVNQADVALKGPESWNYSDNLPTDKAKAFLEKQQNSIARRIHKATQINVKTLYFVAGYSDGVNRQRPYNLSKLLYTIVEILPNNKRVMLANRTISNDADNWKDNDASDYNKKTTLSLWEAIVETTLQGASIGSDIGSIFGKPGEILGKVVGSVAGLFFGGLRYTFGFLEHHHHHH”, the “soluble on expression in E. coli” value is recorded as “soluble”.
